Results from publication PMC2880176.

Key:
[1] = tested on: MBP-#γA (5-finger artificial zinc finger protein) (artificial); test: EMSA
[2] = tested on: MBP-#γA-opt (5-finger artificial zinc finger protein) (artificial); test: EMSA
[3] = tested on: gg1 (6-finger artificial zinc finger protein) (artificial); conditions: cited from earlier work

Sequence	Kd [1] [nM]	Kd [2] [nM]	Kd [3] [nM]
GATGCCGTTTGAGGT (double strand) [γ-globin promoter #γA target site]	3.2	7.1	–
GTCAAGGCAAGGCTGGCC (double strand) [gg1 target site in γ-globin promoter]	–	–	0.7
